# In patent publication US9969998B2, “Compositions of adenosine deaminase-2 (ADA2), variants thereof and methods of using same” (Halozyme, Inc., priority 2014, dated 2018):
# Substitutions are numbered along the chain they refer to. Names may count otherwise.
# B1: K374D/C108-T150del→(GGGGS)3 (protein)
# chain: IDETRAHLLLKEKMMRLGGRLVLNTKEELANERLMTLKIAEMKEAMRTLIFPPSMHFFQAKHLIERSQVFNILRMMPKGAALHLHDIGIVTMDWLVRNVTYRPHGGGGSGGGGSGGGGSEFDDSLLRNFTLVTQHPEVIYTNQNVVWSKFETIFFTISGLIHYAPVFRDYVFRSMQEFYEDNVLYMEIRARLLPVYELSGEHHDEEWSVKTYQEVAQKFVETHPEFIGIKIIYSDHRSKDVAVIAESIRMAMGLRIKFPTVVAGFDLVGHEDTGHSLHDYKEALMIPAKDGVKLPYFFHAGETDWQGTSIDRNILDALMLNTTRIGHGFALSKHPAVRTYSWDKDIPIEVCPISNQVLKLVSDLRNHPVATLMATGHPMVISSDDPAMFGAKGLSYDFYEVFMGIGGMKADLRTLKQLAMNSIKYSTLLESEKNTFMEIWKKRWDKFIADVATK
# modifications: C108-T150 replaced by (GGGGS)3; human ADA2 K371D/C105-T147del->(GGGGS)3, mature numbering
# B2: R222Q/K374D/R23E: ADA2 combination variant SEQ ID NO:267 (protein)
# chain: IDETRAHLLLKEKMMRLGGELVLNTKEELANERLMTLKIAEMKEAMRTLIFPPSMHFFQAKHLIERSQVFNILRMMPKGAALHLHDIGIVTMDWLVRNVTYRPHCHICFTPRGIMQFRFAHPTPRPSEKCSKWILLEDYRKRVQNVTEFDDSLLRNFTLVTQHPEVIYTNQNVVWSKFETIFFTISGLIHYAPVFRDYVFRSMQEFYEDNVLYMEIRAQLLPVYELSGEHHDEEWSVKTYQEVAQKFVETHPEFIGIKIIYSDHRSKDVAVIAESIRMAMGLRIKFPTVVAGFDLVGHEDTGHSLHDYKEALMIPAKDGVKLPYFFHAGETDWQGTSIDRNILDALMLNTTRIGHGFALSKHPAVRTYSWDKDIPIEVCPISNQVLKLVSDLRNHPVATLMATGHPMVISSDDPAMFGAKGLSYDFYEVFMGIGGMKADLRTLKQLAMNSIKYSTLLESEKNTFMEIWKKRWDKFIADVATK
# modifications: human ADA2 R219Q/K371D/R20E, mature numbering
# B3: R222Q/S265N/K374D: ADA2 combination variant SEQ ID NO:269 (protein)
# chain: B2 chain with E20R, S262N
# modifications: human ADA2 R219Q/S262N/K371D, mature numbering
# B4: R222Q/S265N/K374E: ADA2 combination variant SEQ ID NO:268 (protein)
# chain: B2 chain with E20R, S262N, D371E
# modifications: human ADA2 R219Q/S262N/K371E, mature numbering
# B5: R222Q/S265N/K374E/R23E: ADA2 combination variant SEQ ID NO:271 (protein)
# chain: B2 chain with S262N, D371E
# modifications: human ADA2 R219Q/S262N/K371E/R20E, mature numbering
# B6: R222Q/S265N/R23E: ADA2 combination variant SEQ ID NO:270 (protein)
# chain: B2 chain with S262N, D371K
# modifications: human ADA2 R219Q/S262N/R20E, mature numbering
# B7: R222Q/S265N/K374D/R23E: ADA2 combination variant SEQ ID NO:272 (protein)
# chain: B2 chain with S262N
# modifications: human ADA2 R219Q/S262N/K371D/R20E, mature numbering
# B8: K374D/C108-T150del→(GGGGS)2 (protein)
# chain: IDETRAHLLLKEKMMRLGGRLVLNTKEELANERLMTLKIAEMKEAMRTLIFPPSMHFFQAKHLIERSQVFNILRMMPKGAALHLHDIGIVTMDWLVRNVTYRPHGGGGSGGGGSEFDDSLLRNFTLVTQHPEVIYTNQNVVWSKFETIFFTISGLIHYAPVFRDYVFRSMQEFYEDNVLYMEIRARLLPVYELSGEHHDEEWSVKTYQEVAQKFVETHPEFIGIKIIYSDHRSKDVAVIAESIRMAMGLRIKFPTVVAGFDLVGHEDTGHSLHDYKEALMIPAKDGVKLPYFFHAGETDWQGTSIDRNILDALMLNTTRIGHGFALSKHPAVRTYSWDKDIPIEVCPISNQVLKLVSDLRNHPVATLMATGHPMVISSDDPAMFGAKGLSYDFYEVFMGIGGMKADLRTLKQLAMNSIKYSTLLESEKNTFMEIWKKRWDKFIADVATK
# modifications: C108-T150 replaced by (GGGGS)2; human ADA2 K371D/C105-T147del->(GGGGS)2, mature numbering
# B9: K374D/V102-Q147del→(GGGGS)3 (protein)
# chain: IDETRAHLLLKEKMMRLGGRLVLNTKEELANERLMTLKIAEMKEAMRTLIFPPSMHFFQAKHLIERSQVFNILRMMPKGAALHLHDIGIVTMDWLVRNGGGGSGGGGSGGGGSNVTEFDDSLLRNFTLVTQHPEVIYTNQNVVWSKFETIFFTISGLIHYAPVFRDYVFRSMQEFYEDNVLYMEIRARLLPVYELSGEHHDEEWSVKTYQEVAQKFVETHPEFIGIKIIYSDHRSKDVAVIAESIRMAMGLRIKFPTVVAGFDLVGHEDTGHSLHDYKEALMIPAKDGVKLPYFFHAGETDWQGTSIDRNILDALMLNTTRIGHGFALSKHPAVRTYSWDKDIPIEVCPISNQVLKLVSDLRNHPVATLMATGHPMVISSDDPAMFGAKGLSYDFYEVFMGIGGMKADLRTLKQLAMNSIKYSTLLESEKNTFMEIWKKRWDKFIADVATK
# modifications: (GGGGS)3 linker replaces deleted region; human ADA2 K371D/V99-Q144del->(GGGGS)3, mature numbering
# B10: K374D/C108-T150del→(GGGGS)1 (protein)
# chain: IDETRAHLLLKEKMMRLGGRLVLNTKEELANERLMTLKIAEMKEAMRTLIFPPSMHFFQAKHLIERSQVFNILRMMPKGAALHLHDIGIVTMDWLVRNVTYRPHGGGGSEFDDSLLRNFTLVTQHPEVIYTNQNVVWSKFETIFFTISGLIHYAPVFRDYVFRSMQEFYEDNVLYMEIRARLLPVYELSGEHHDEEWSVKTYQEVAQKFVETHPEFIGIKIIYSDHRSKDVAVIAESIRMAMGLRIKFPTVVAGFDLVGHEDTGHSLHDYKEALMIPAKDGVKLPYFFHAGETDWQGTSIDRNILDALMLNTTRIGHGFALSKHPAVRTYSWDKDIPIEVCPISNQVLKLVSDLRNHPVATLMATGHPMVISSDDPAMFGAKGLSYDFYEVFMGIGGMKADLRTLKQLAMNSIKYSTLLESEKNTFMEIWKKRWDKFIADVATK
# modifications: C108-T150 replaced by GGGGS linker; human ADA2 K371D/C105-T147del->(GGGGS)1, mature numbering
# Assay: Kinetic assessment of adenosine deaminase activity (ammonia assay, Michaelis-Menten)
# Format: biochemical
# Conditions: [E] = 8.5 nM
# Method: Adenosine deaminase activity was determined by the measurement of ammonia released from adenosine when broken down to inosine. Ammonia was measured using a commercially available Ammonia Assay kit (Cat. No. AA0100, Sigma-Aldrich, St. Louis, Mo.). The kit contains dry reagents containing α-ketoglutaric acid and NADPH, which were reconstituted with 5 mL water prior to use in the assay. Ammonia reacts with α-ketogluaric acid (KGA) and reduced nicotinamide adenine dinucleotide phosphate (NADPH) in the presence of L-glutamate dehydrogenase (GDH).
# Kinetics parameters of rHuADA2 WT and variants were compared using this assay at different adenosine concentrations at pH 7.6 and 6.5. Adenosine concentrations ranging from 20 μM to 20 mM were used. Sub-molar concentration of adenosine stock was prepared in 1N NaOH.
# For the enzymatic assays at pH 7.6, adenosine was serially diluted with 100 mM sodium acetate (NaOAc), pH 4.9. A 2× reaction mixture was prepared, containing reconstituted ammonia assay reagent (containing about 4 mM α-ketoglutarate and about 300 μM NADPH), WT rHuADA2 or variants at 1 μg/mL (17 nM) and glutamate dehydrogenase (GDH, 1:50 dilution). 85 μL of adenosine was added to 85 μL 2× mixture in duplicate in a UV-transparent half-area plate. The change in absorbance (ΔA) at 340 nm over time at room temperature was monitored.
# For the enzymatic assay at pH 6.5, adenosine was serially diluted with 200 mM piperazine-N,N′-bis(2-ethanesulfonic acid) (PIPES), pH 6.5. A 2× reaction mixture in 200 mM PIPES, pH 6.5 was prepared, containing 4 mM α-ketoglutarate, 300 μM NADPH, 1 μg/mL (17 nM) rHuADA2 or variants and 50 U/mL GDH (Cat No. G2626, Sigma-Aldrich). The enzymatic reaction was initiated by adding equal volume of adenosine to the 2× mixture in a UV-transparent half-area plate as described above, and the change in absorbance (AA) at 340 nm over time at room temperature was monitored.
# Adenosine deaminase activity in mU/mL (μM/min equivalent) was calculated using the following formula: 1 mU/mL=−(−ΔA/min×Tv)/(Sv×ϵ×1) • where Tv=total volume (170 μL), Sv=sample volume (85 μL), ϵ=6.22×10^−3 μM^−1 cm^−1, 1=1 cm.
# The activity data were fitted with non-linear regression of Michaelis-Menten equation using Graphpad Prism software to obtain Km and Vmax. Other kinetics parameters such as kcat and kcat/Km were also determined.
Molecule,Km (pH 7.6) [µM],Vmax (pH 7.6) [µM/min],kcat (pH 7.6) [s⁻¹],Km (pH 6.5) [µM],Vmax (pH 6.5) [µM/min],"kcat (pH 6.5, kcat=Vmax/0.0085/60) [s⁻¹]","kcat (pH 7.6, kcat=Vmax/0.0085/60) [s⁻¹]"
B1,770,38.12,74.75,,,,
B2,1340,88.43,,670,60.68,118.98,173.39
B3,1190,70.96,,760,50.89,99.78,139.14
B4,1350,65.43,,800,45.53,89.27,128.29
B5,1240,90.91,,770,54.82,107.49,178.25
B6,1290,67.24,,1010,40.59,79.59,131.84
B7,1230,72.58,,810,45.78,89.76,142.31
B8,850,36.92,72.39,,,,
B9,820,43.01,84.33,,,,
B10,910,43.1,84.51,,,,
